According to patent US20040138122A1:

Assays:
Assay in all cases: cell-based or functional assay
[1] = molecular target: zcyto21 (human IL-29) (human) (UniProt Q8IU54)
[2] = molecular target: T1, zcyto24 (mouse IL-28A) (mouse) (UniProt Q4VK74)
T1 sequence: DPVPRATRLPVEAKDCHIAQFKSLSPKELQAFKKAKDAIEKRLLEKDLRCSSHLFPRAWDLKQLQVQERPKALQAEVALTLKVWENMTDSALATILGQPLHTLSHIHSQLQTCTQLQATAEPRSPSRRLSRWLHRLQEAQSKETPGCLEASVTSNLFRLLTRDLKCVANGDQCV

[3] = molecular target: T2, zcyto20 (human IL-28A) (human) (UniProt Q8IZJ0)
T2 sequence: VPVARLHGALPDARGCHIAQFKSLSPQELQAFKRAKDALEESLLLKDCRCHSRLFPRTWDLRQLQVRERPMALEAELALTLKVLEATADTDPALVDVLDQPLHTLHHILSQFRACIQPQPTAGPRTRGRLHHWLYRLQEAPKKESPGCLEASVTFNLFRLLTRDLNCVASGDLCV

Chain of zcyto21 (human IL-29) (human) (Q8IU54 20-200): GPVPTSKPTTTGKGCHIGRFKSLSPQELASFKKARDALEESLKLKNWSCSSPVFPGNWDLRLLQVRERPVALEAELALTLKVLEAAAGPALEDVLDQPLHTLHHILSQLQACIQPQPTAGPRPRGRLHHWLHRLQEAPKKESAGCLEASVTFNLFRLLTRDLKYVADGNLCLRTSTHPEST

Percent Inhibition of Ligand-induced Interferon Stimulated Response Element (ISRE) Signaling by Soluble Receptors [1]: 45%
Percent Inhibition of Ligand-induced Interferon Stimulated Response Element (ISRE) Signaling by Soluble Receptors [2]: 90%
Percent Inhibition of Ligand-induced Interferon Stimulated Response Element (ISRE) Signaling by Soluble Receptors [3]: 92%
B1: human zcytor19-Fc homodimer (Fc fusion, not shown: a dimerising Fc or GST)
chain: RPRLAPPQNVTLLSQNFSVYLTWLPGLGNPQDVTYFVAYQSSPTRRRWREVEECAGTKELLCSMMCLKKQDLYNKFKGRVRTVSPSSKSPWVESEYLDYLFEVEPAPPVLVLTQTEEILSANATYQLPPCMPPLDLKYEVAFWKEGAGNKTLFPVTPHGQPVQITLQPAASEHHCLSARTIYTFSVPKYSKFSKPTCFLLEVPEAN
